The values below come from publication PMC12914646 (ACS infectious diseases, 2020).

The series concerns the molecule itself. Briefly: crystal structure.

B1: fluorophosphonate-binding hydrolase F (FphF), apo form (enzyme, Staphylococcus aureus, UniProt Q2FUY3 2-253, looked up)
chain: AYISLNYHSPTIGMHQNLTVILPEDQSFFNSDTTVKPLKTLMLLHGLSSDETTYMRYTSIERYANEHKLAVIMPNVDHSAYANMAYGHSYYDYILEVYDYVHQIFPLSKKRDDNFIAGHSMGGYGTIKFALTQGDKFAKAVPLSAVFEAQNLMDLEWNDFSKEAIIGNLSSVKGTEHDPYYLLDKAVAEDKQIPKLLIMCGKQDFLYQDNLDFIDYLSRINVPYQFEDGPGDHDYAYWDQAIKRAITWMVND
The term stoichiometry N denotes the number of molecules, sites or subunits per partner or assembly. For the protein B1, the “stoichiometry N” value turned out to be 4.

B2: FphF with the 2-phenylpiperidine-1-carbonyl moiety of KT129 or KT130 covalently attached to Ser121 (enzyme, Staphylococcus aureus, UniProt Q2FUY3 2-253, looked up)
chain: AYISLNYHSPTIGMHQNLTVILPEDQSFFNSDTTVKPLKTLMLLHGLSSDETTYMRYTSIERYANEHKLAVIMPNVDHSAYANMAYGHSYYDYILEVYDYVHQIFPLSKKRDDNFIAGHSMGGYGTIKFALTQGDKFAKAVPLSAVFEAQNLMDLEWNDFSKEAIIGNLSSVKGTEHDPYYLLDKAVAEDKQIPKLLIMCGKQDFLYQDNLDFIDYLSRINVPYQFEDGPGDHDYAYWDQAIKRAITWMVND
modifications: 2-phenylpiperidine-1-carbonyl moiety covalently attached to the terminal side chain oxygen atom of Ser121
As for B2, the “stoichiometry N” value was found to be 4.

B3: FphF with the heptyl acyl moiety of 4-MU heptanoate covalently linked to Ser121 (enzyme, Staphylococcus aureus, UniProt Q2FUY3 2-253, looked up)
chain: AYISLNYHSPTIGMHQNLTVILPEDQSFFNSDTTVKPLKTLMLLHGLSSDETTYMRYTSIERYANEHKLAVIMPNVDHSAYANMAYGHSYYDYILEVYDYVHQIFPLSKKRDDNFIAGHSMGGYGTIKFALTQGDKFAKAVPLSAVFEAQNLMDLEWNDFSKEAIIGNLSSVKGTEHDPYYLLDKAVAEDKQIPKLLIMCGKQDFLYQDNLDFIDYLSRINVPYQFEDGPGDHDYAYWDQAIKRAITWMVND
modifications: heptyl acyl moiety covalently linked to Ser121
For B3, the “stoichiometry N” value was found to be 4.
